Reference: IntAct's records for PubMed 24658140

B1: Receptor tyrosine-protein kinase erbB-4 (Homo sapiens), Q15303 (parent)
chain: MKPATGLWVWVSLLVAAGTVQPSDSQSVCAGTENKLSSLSDLEQQYRALRKYYENCEVVMGNLEITSIEHNRDLSFLRSVREVTGYVLVALNQFRYLPLENLRIIRGTKLYEDRYALAIFLNYRKDGNFGLQELGLKNLTEILNGGVYVDQNKFLCYADTIHWQDIVRNPWPSNLTLVSTNGSSGCGRCHKSCTGRCWGPTENHCQTLTRTVCAEQCDGRCYGPYVSDCCHRECAGGCSGPKDTDCFACMNFNDSGACVTQCPQTFVYNPTTFQLEHNFNAKYTYGAFCVKKCPHNFVVDSSSCVRACPSSKMEVEENGIKMCKPCTDICPKACDGIGTGSLMSAQTVDSSNIDKFINCTKINGNLIFLVTGIHGDPYNAIEAIDPEKLNVFRTVREITGFLNIQSWPPNMTDFSVFSNLVTIGGRVLYSGLSLLILKQQGITSLQFQSLKEISAGNIYITDNSNLCYYHTINWTTLFSTINQRIVIRDNRKAENCTAEGMVCNHLCSSDGCWGPGPDQCLSCRRFSRGRICIESCNLYDGEFREFENGSICVECDPQCEKMEDGLLTCHGPGPDNCTKCSHFKDGPNCVEKCPDGLQGANSFIFKYADPDRECHPCHPNCTQGCNGPTSHDCIYYPWTGHSTLPQHARTPLIAAGVIGGLFILVIVGLTFAVYVRRKSIKKKRALRRFLETELVEPLTPSGTAPNQAQLRILKETELKRVKVLGSGAFGTVYKGIWVPEGETVKIPVAIKILNETTGPKANVEFMDEALIMASMDHPHLVRLLGVCLSPTIQLVTQLMPHGCLLEYVHEHKDNIGSQLLLNWCVQIAKGMMYLEERRLVHRDLAARNVLVKSPNHVKITDFGLARLLEGDEKEYNADGGKMPIKWMALECIHYRKFTHQSDVWSYGVTIWELMTFGGKPYDGIPTREIPDLLEKGERLPQPPICTIDVYMVMVKCWMIDADSRPKFKELAAEFSRMARDPQRYLVIQGDDRMKLPSPNDSKFFQNLLDEEDLEDMMDAEEYLVPQAFNIPPPIYTSRARIDSNRSEIGHSPPPAYTPMSGNQFVYRDGGFAAEQGVSVPYRAPTSTIPEAPVAQGATAEIFDDSCCNGTLRKPVAPHVQEDSSTQRYSADPTVFAPERSPRGELDEEGYMTPMRDKPKQEYLNPVEENPFVSRRKNGDLQALDNPEYHNASNGPPKAEDEYVNEPLYLNTFANTLGKAEYLKNNILSMPEKAKKAFDNPDYWNHSLPPRSTLQHPDYLQEYSTKYFYKQNGRIRPIVAENPEYLSEFSLKPGTVLPPPPYRHRNTVV
partner: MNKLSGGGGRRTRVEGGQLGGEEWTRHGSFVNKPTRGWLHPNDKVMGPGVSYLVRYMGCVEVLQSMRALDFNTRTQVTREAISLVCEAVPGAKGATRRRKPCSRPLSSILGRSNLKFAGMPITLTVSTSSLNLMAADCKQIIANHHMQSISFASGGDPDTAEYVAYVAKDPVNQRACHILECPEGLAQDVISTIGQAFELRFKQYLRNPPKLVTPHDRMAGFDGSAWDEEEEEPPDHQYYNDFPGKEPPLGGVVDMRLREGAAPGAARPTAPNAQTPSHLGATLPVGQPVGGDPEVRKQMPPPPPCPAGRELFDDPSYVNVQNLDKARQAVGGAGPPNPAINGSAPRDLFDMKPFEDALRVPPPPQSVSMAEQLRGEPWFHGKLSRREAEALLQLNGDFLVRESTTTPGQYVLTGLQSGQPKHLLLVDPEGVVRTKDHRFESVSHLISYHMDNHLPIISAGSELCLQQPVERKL
B2: Beta-arrestin-2 (Homo sapiens), P32121-4 (parent)
chain: MGEKPGTRVFKKSSPNCKLTVYLGKRDFVDHLDKVDPVDGVVLVDPDYLKDRKVFVTLTCAFRYGREDLDVLGLSFRKDLFIATYQAFPPVPNPPRPPTRLQDRLLRKLGQHAHPFFFTVRMPLPSEGQGAGAGTVSGVGIPQNLPCSVTLQPGPEDTGKACGVDFEIRAFCAKSLEEKSHKRNSVRLVIRKVQFAPEKPGPQPSAETTRHFLMSDRSLHLEASLDKELYYHGEPLNVNVHVTNNSTKTVKKIKVSVRQYADICLFSTAQYKCPVAQLEQDDQVSPSSTFCKVYTITPLLSDNREKRGLALDGKLKHEDTNLASSTIVKEGANKEVLGILVSYRVKVKLVVSRGGDVSVELPFVLMHPKPHDHIPLPRPQSAAPETDVPVDTNLIEFDTNYATDDDIVFEDFARLRLKGMKDDDYDDQLC

Variants of: B1
Settings: with SHC1, P29353-7

| Variant | effect of a mutation on the interaction |
| --- | --- |
| E542K | increasing interaction strength |
| E872K | increasing interaction strength |

Variants of: B2
Settings: with adrb2_human ADRB2, P07550

| Variant | effect of a mutation on the interaction |
| --- | --- |
| MGEKPGTRVFKKSSPNCKLTVYLGKRDFVDHLDKVDPVDGVVLVDPDYLKDRKVFVTLTCAFRYGREDLDVLGLSFRKDLFIATYQAFPPVPNPPRPPTRLQDRLLRKLGQHAHPFFFTVRMPLPSEGQGAGAGTVSGVGIPQNLPCSVTLQPGPEDTGKACGVDFEIEAFCAKSLEEKSHKRNSVRLVIRKVQFAPEKPGPQPSAETTRHFLMSDRSLHLEASLDKELYYHGEPLNVNVHVTNNSTKTVKKIKVSVRQYADICLFSTAQYKCPVAQLEQDDQVSPSSTFCKVYTITPLLSDNREKRGLALDGKLKHEDTNLASSTIVKEGANKEVLGILVSYRVKVKLVVSRGGDVSVELPFVLMHPKPHDHIPLPRPQSAAPETDVPVDTNLIEFDTNYATDDDIVFEDFARLRLKGMKDDDYDDQLC [R169E] | decreasing interaction strength |
